Assay results taken from PMC9121386 (Journal of the American Chemical Society, 2022).

Experiments:
Assay in all cases: cross-linking
[1] = molecular target: eS25 (40S ribosomal subunit protein) (human (endogenous in H1299), UniProt P62851 1-125)
[2] = molecular target: uL2 (60S ribosomal subunit protein) (human (endogenous in H1299), UniProt P62917 1-257)
[3] = molecular target: uL4 (60S ribosomal subunit protein) (human (endogenous in H1299), UniProt P36578 1-427)
[4] = molecular target: uL16 (60S ribosomal subunit protein) (human (endogenous in H1299), UniProt P27635 1-214)

Measured: binding result

B1: fragile histidine triad (Fhit), wild type (enzyme)
chain: not shown
binds: [1] | [2] | [3] | [4]
